Laboratory results: publication PMC12463560

Molecular target: PEDV-S1 protein fused with an Fc region (PEDV-S1-Fc protein) (porcine epidemic diarrhea virus | human)
Assay: SDS-PAGE under reducing and non-reducing conditions; purified proteins loaded with (+) or without (-) beta-mercaptoethanol, Coomassie stained; shows disulfide-linked dimers only

PEDV-S1 protein fused with an Fc region (PEDV-S1-Fc protein) (Fc fusion)
stoichiometry N: 2
